Reference: PMC2976503 (The Journal of neuroscience : the official journal of the …, 2010)

Target: the molecule itself
Assay: SDS-resistant high molecular mass complex on SDS-PAGE

B1: GABAA receptor γ2S(Q351X)^FLAG subunit (domain or fragment, human, UniProt P18507-1 40-389, looked up)
chain: QKSDDDYEDYASNKTWVLTPKVPEGDVTVILNNLLEGYDNKLRPDIGVKPTLIHTDMYVNSIGPVNAINMEYTIDIFFAQTWYDRRLKFNSTIKVLRLNSNMVGKIWIPDTFFRNSKKADAHWITTPNRMLRIWNDGRVLYTLRLTIDAECQLQLHNFPMDEHSCPLEFSSYGYPREEIVYQWKRSSVEVGDTRSWRLYQFSFVGLRNTTEVVKTTSGDYVVMSVYFDLSRRMGYFTIQTYIPCTLIVVLSWVSFWINKDAVPARTSLGITTVLTMTTLSTIARKSLPKVSYVTAMDLFVSVCFIFVFSALVEYGTLHYFVSNRKPSKDKDKKKKNPAPTIDIRPRSATI
- stoichiometry N: 2
